Consider 62 sequences from the supplement of paper PMC9112550, “Optimization of the antimicrobial peptide Bac7 by deep mutational scanning” (BMC Biology, 2022).
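Further: peptides expressed intracellularly from a pBAD plasmid library in pooled LB shake-flask culture, induced with 0.3% L-arabinose, DNA abundance read by NGS, three biological replicates, DESeq2 with apeglm shrinkage.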

The test system of the data set is Escherichia coli TOP10. The data set can be described thus: shrunken log2 fold change of peptide-encoding DNA abundance (4.5 h post-induction vs induction); higher = less antimicrobial activity (less host growth inhibition). Conditions: time post-induction: 4.5 h; library: site-saturation at positions 5, 18, 19, 20.
As for RRIRPRPPRLPRPRPRPFVQPRP, the “shrunken log2 fold change” value was -0.0832. The same measure for RRIRRRPPRLPRPRPRPSELPRP: 0.0695. The same measure for RRIRTRPPRLPRPRPRPMIPPRP: -0.12.

Regarding RRIRMRPPRLPRPRPRPEDKPRP, the “shrunken log2 fold change” value turned out to be 2.94. The same measure for RRIRDRPPRLPRPRPRPPYAPRP: 0.0432. The same measure for RRIRGRPPRLPRPRPRPFGSPRP: 0.081; for RRIRMRPPRLPRPRPRPANCPRP: -0.242. The value for RRIRFRPPRLPRPRPRPNWHPRP was -0.0729; that for RRIRERPPRLPRPRPRPRPTPRP was 0.35. For RRIRIRPPRLPRPRPRPAATPRP, the “shrunken log2 fold change” value amounted to 0.0455. The same measure for RRIRMRPPRLPRPRPRPEMFPRP: 2.24; for RRIRNRPPRLPRPRPRPNVEPRP: -0.0627; for RRIRKRPPRLPRPRPRPCNVPRP: -0.192.

For the sequence RRIRLRPPRLPRPRPRPDRMPRP, the “shrunken log2 fold change” value is -0.0414. The same measure for RRIRLRPPRLPRPRPRPAWCPRP: 0.094. The same measure for RRIRRRPPRLPRPRPRPALAPRP: 0.516; for RRIRQRPPRLPRPRPRPAITPRP: -0.114.

With RRIRNRPPRLPRPRPRPPHEPRP, the “shrunken log2 fold change” value amounted to 0.256. The value for RRIRNRPPRLPRPRPRPYTLPRP was -0.288; that for RRIRIRPPRLPRPRPRPHKCPRP was -0.639. The same measure for RRIRARPPRLPRPRPRPVCDPRP: 0.992; for RRIRNRPPRLPRPRPRPPVTPRP: 0.228. The same measure for RRIRNRPPRLPRPRPRPFKFPRP: -0.423; for RRIRTRPPRLPRPRPRPCFDPRP: -0.0899. Consider RRIRNRPPRLPRPRPRPALWPRP, for which the “shrunken log2 fold change” value is -0.15. With RRIRFRPPRLPRPRPRPDIEPRP, the “shrunken log2 fold change” value amounted to 0.0974.

Take RRIRNRPPRLPRPRPRPPEVPRP: the “shrunken log2 fold change” value was 0.0233. The same measure for RRIRARPPRLPRPRPRPVYIPRP: -0.355. Take RRIRQRPPRLPRPRPRPYYPPRP: the “shrunken log2 fold change” value was found to be 0.0338. The same measure for RRIRHRPPRLPRPRPRPGVWPRP: 0.178; for RRIRRRPPRLPRPRPRPLKYPRP: 0.0102; for RRIRIRPPRLPRPRPRPLNNPRP: -1.15.

For the sequence RRIRHRPPRLPRPRPRPGIDPRP, the “shrunken log2 fold change” value is -0.0302. The value for RRIRLRPPRLPRPRPRPLKDPRP was -0.0949.

On to RRIRDRPPRLPRPRPRPSHYPRP, for which the “shrunken log2 fold change” value is -1.14. The value for RRIRCRPPRLPRPRPRPFRTPRP was -0.421; that for RRIRERPPRLPRPRPRPSGGPRP was -0.0233; that for RRIRLRPPRLPRPRPRPTGNPRP was -0.044. The same measure for RRIRNRPPRLPRPRPRPRHLPRP: -0.337; for RRIRLRPPRLPRPRPRPAMQPRP: 0.0214; for RRIRTRPPRLPRPRPRPLLEPRP: 0.024.

In the case of RRIRVRPPRLPRPRPRPFSRPRP, the “shrunken log2 fold change” value was -0.0787. The value for RRIRGRPPRLPRPRPRPTCQPRP was 0.71; that for RRIRYRPPRLPRPRPRPARNPRP was -0.0503; that for RRIRCRPPRLPRPRPRPRTFPRP was -0.24. The same measure for RRIRARPPRLPRPRPRPNTVPRP: 0.0514; for RRIRKRPPRLPRPRPRPPAFPRP: 0.309; for RRIRMRPPRLPRPRPRPLHGPRP: 0.108.

In the case of RRIRRRPPRLPRPRPRPSPNPRP, the “shrunken log2 fold change” value was determined as 0.396. The value for RRIRERPPRLPRPRPRPTCQPRP was 0.00216; that for RRIRDRPPRLPRPRPRPRFDPRP was -0.0584; that for RRIRPRPPRLPRPRPRPAEMPRP was 0.189. On to RRIRRRPPRLPRPRPRPTARPRP, for which the “shrunken log2 fold change” value came out at 0.494.

Consider RRIRMRPPRLPRPRPRPAEIPRP, for which the “shrunken log2 fold change” value amounted to 0.11. RRIRERPPRLPRPRPRPIFGPRP: the “shrunken log2 fold change” value was -0.112. The same measure for RRIRFRPPRLPRPRPRPFWKPRP: -0.0963; for RRIRRRPPRLPRPRPRPHKMPRP: -0.167. The same measure for RRIRERPPRLPRPRPRPLCKPRP: -0.304; for RRIRRRPPRLPRPRPRPAPPPRP: 0.778. The same measure for RRIRLRPPRLPRPRPRPFRYPRP: -0.021. As for RRIRTRPPRLPRPRPRPIINPRP, the “shrunken log2 fold change” value was -0.0706. The value for RRIRLRPPRLPRPRPRPQTVPRP was -0.211.
